Assay results as given in article PMC10715038 (Microbiology Spectrum, 2023).

Target: T1, SARS-CoV-2 WHU01 Spike RBD, monomeric (SARS-CoV-2, UniProt P0DTC2)
T1 construct: not shown: Fc (human IgG1), C-terminal, cleaved
Test: SPR
Settings: both partners purified

B1: Cattle ACE2-huFc (soluble cattle ACE2 ectodomain, human IgG1 Fc fusion) (Fc fusion)
chain: QSTTEEQAKTFLEKFNHEAEDLSYQSSLASWNYNTNITDENVQKMNEARAKWSAFYEEQSRMAKTYSLEEIQNLTLKRQLKALQHSGTSALSAEKSKRLNTILNKMSTIYSTGKVLDPNTQECLALEPGLDDIMENSRDYNRRLWAWEGWRAEVGKQLRPLYEEYVVLENEMARANNYEDYGDYWRGDYEVTGAGDYDYSRDQLMKDVERTFAEIKPLYEQLHAYVRAKLMHTYPSYISPTGCLPAHLLGDMWGRFWTNLYSLTVPFEHKPSIDVTEKMENQSWDAERIFKEAEKFFVSISLPYMTQGFWDNSMLTEPGDGRKVVCHPTAWDLGKGDFRIKMCTKVTMDDFLTAHHEMGHIQYDMAYAAQPYLLRNGANEGFHEAVGEIMSLSAATPHYLKALGLLAPDFHEDNETEINFLLKQALTIVGTLPFTYMLEKWRWMVFKGEIPKQQWMEKWWEMKREIVGVVEPLPHDETYCDPACLFHVAEDYSFIRYYTRTIYQFQFHEALCKTAKHEGALFKCDISNSTEAGQRLLQMLRLGKSEPWTLALENIVGIKTMDVKPLLNYFEPLFTWLKEQNRNSFVGWSTEWTPYSDQSIKVRISLKSALGENAYEWNDNEMYLFQSSVAYAMRKYFSEARNETVLFGEDNVWVSDKKPRISFKFFVTSPNNVSDIIPRTEVENAIRLSRDRINDVFQLDDNSLEFLGIQPTLGPPYEPPVTI
Kd: 700 nM
koff: 0.066 s⁻¹
kon: 94000 M⁻¹ s⁻¹
